Among the data in paper PMC9478924 are Kd, koff and kon values, retold here.

What all share (assay): SPR
(In general: SPR reads the build-up and loss of mass on a sensor chip optically.)

One assay deals with CHI-1P.
Assay [1] concerns the target CHI-1R (not stated | Rhipicephallus pulchellus (zebra tick or yellow back tick)).
The next assay has as its target CHI-P1.
Assay [2] has as its target CHI-R1 (Rhipicephallus pulchellus (zebra tick or yellow back tick) | not stated).
In assay [3] the target is EVA-RPU02 (Rhipicephallus pulchellus (zebra tick or yellow back tick)).
The target in another assay is T1, EVA-P974, A0A023.
T1 chain: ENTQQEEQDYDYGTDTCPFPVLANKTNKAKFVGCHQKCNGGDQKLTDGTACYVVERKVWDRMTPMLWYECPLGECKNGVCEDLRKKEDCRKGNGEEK
The note with it: remark: other sources report otherwise.

Another assay concerns the target T2, EVA-4, P0C8E9.
T2 chain: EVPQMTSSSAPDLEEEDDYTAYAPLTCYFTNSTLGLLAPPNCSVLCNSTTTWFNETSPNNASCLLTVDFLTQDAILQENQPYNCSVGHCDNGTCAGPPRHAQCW
The conditions noted are these: remark: other sources report otherwise.

Assay [4] deals with CHI-PR (not stated | Rhipicephallus pulchellus (zebra tick or yellow back tick)).

Bounds are passed on as bounds.

B1: CCL16 (ligand)
chain: QPKVPEWVNTPSTCCLKYYEKVLPRRLVVGYRKALNCHLPAIIFVTKRNREVCTNPNDDWVQEYIKDPNLPLLPTRNLSTVKIITAKNGQPQLLNSQ
B1: the dissociation constant (Kd) – broadly, the equilibrium constant for the complex coming apart – in the assay with CHI-1P was 182 nM; in assay [1], over 500 nM.

B2: CCL14 (ligand)
chain: TKTESSSRGPYHPSECCFTYTTYKIPRQRIMDYYETNSQCSKPGIVFITKRGHSVCTNPSDKWVQDYIKDMKEN
For the molecule B2, the Kd with CHI-1P stood at 149 nM; in assay [1], 60 nM; with CHI-P1 it was 79 nM; in assay [2], 134 nM; in assay [3] it was 32.4 nM. In addition, in assay [3], the koff – broadly, a measure of how fast the partners let go of each other – amounted to 0.024 s⁻¹. Further, the on-rate (kon) (usually the second-order rate constant of association) in assay [3] turned out to be 580000 M⁻¹ s⁻¹.

B3: CCL15 (ligand)
chain: QFTNDAETELMMSKLPLENPVVLNSFHFAADCCTSYISQSIPCSLMKSYFETSSECSKPGVIFLTKKGRQVCAKPSGPGVQDCMKKLKPYSI
With B3, in assay [3], the Kd came to 503 nM, the koff turned out to be 0.069 s⁻¹ and the association rate constant (kon) was found to be 140000 M⁻¹ s⁻¹.

B4: CCL15, Q16663 22-113 (ligand)
chain: B3 chain
modifications: here or on the partner: biotin on the Avi-tag (Bir-A ligase)
B4: in the assay with EVA-P974, A0A023, the Kd is 299 nM.

B5: CCL1 (ligand)
chain: KSMQVPFSRCCFSFAEQEIPLRAILCYRNTSSICSNEGLIFKLKRGKEACALDTVGWVQRHRKMLRHCPSKRK
In the case of B5, in the assay with CHI-1P, the Kd amounted to 191 nM.

B6: CCL22 (ligand)
chain: GPYGANMEDSVCCRDYVRYRLPLRVVKHFYWTSDSCPRPGVVLLTFRDKEICADPRVPWVKMILNKLSQ
Regarding B6, the dissociation constant Kd in the assay with CHI-1P was 25 nM; in assay [1], over 500 nM.

B7: CCL4, P13236 24-92 (ligand)
chain: APMGSDPPTACCFSYTARKLPRNFVVDYYETSSLCSQPAVVFQTKRSKQVCADPSESWVQEYVYDLELN
modifications: here or on the partner: biotin on the Avi-tag (Bir-A ligase)
The molecule B7 showed a dissociation constant (Kd) with EVA-4, P0C8E9 of 158 nM.

B8: CCL18 (ligand)
chain: AQVGTNKELCCLVYTSWQIPQKFIVDYSETSPQCPKPGVILLTKRGRQICADPNKKWVQKYISDLKLNA
Regarding B8, the dissociation constant Kd in the assay with CHI-1P was 206 nM; in assay [1], over 500 nM; in assay [4], 315 nM; in assay [3], 651 nM. In assay [3], this molecule gave a koff of 0.35 s⁻¹. Also, the kon in assay [3] is 490000 M⁻¹ s⁻¹.
